Experimental data: publication PMC1851384, “Involvement of maternal embryonic leucine zipper kinase (MELK) in mammary carcinogenesis through interaction with Bcl-G, a pro-apoptotic member of the Bcl-2 family” (Breast Cancer Research, 2007)

Target: T1, His-tagged wild-type MELK recombinant protein (human, UniProt Q14680-1 1-651)
T1 construct: pET21a usually adds a C-terminal His6 tag; also called WT-MELK; His-tagged WT-MELK; source: E. coli BL21 codon-plus (DE3) RIL, purified (Ni-NTA superflow, nondenaturing)
Assay: pull-down; in vitro binding assay: 10 ug His-tagged MELK held by anti-6XHis antibody on protein G Sepharose; 5 ug Bcl-GL recombinant protein in 500 ul binding buffer (50 mM Tris, 75 mM NaCl, 10 mM MgCl2, 1 mM DTT, 2% BSA, 100 uM ATP), 30 minutes at 4°C; blot with anti-Bcl-GL
Details: both partners purified

T1 sequence (Q14680 whole entry): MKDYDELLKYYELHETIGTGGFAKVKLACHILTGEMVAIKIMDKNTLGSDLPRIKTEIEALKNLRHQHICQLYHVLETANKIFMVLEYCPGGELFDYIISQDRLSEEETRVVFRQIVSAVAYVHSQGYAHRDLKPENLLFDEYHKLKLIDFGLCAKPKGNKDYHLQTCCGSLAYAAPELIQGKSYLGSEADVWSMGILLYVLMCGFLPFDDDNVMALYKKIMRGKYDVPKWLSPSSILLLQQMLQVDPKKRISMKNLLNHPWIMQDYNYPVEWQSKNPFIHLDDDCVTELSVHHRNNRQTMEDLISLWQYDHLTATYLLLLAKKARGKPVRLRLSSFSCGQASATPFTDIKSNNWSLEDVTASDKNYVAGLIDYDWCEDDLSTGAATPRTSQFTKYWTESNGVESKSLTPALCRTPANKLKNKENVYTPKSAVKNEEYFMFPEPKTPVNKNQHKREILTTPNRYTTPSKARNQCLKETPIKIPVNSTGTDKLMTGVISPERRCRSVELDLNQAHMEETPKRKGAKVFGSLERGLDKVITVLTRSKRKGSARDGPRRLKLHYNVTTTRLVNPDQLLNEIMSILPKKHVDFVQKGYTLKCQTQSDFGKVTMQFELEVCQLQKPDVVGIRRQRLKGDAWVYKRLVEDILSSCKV

B1: Bcl-GL recombinant protein (GST removed) (natural protein, human, UniProt Q9BZR8-1 1-327, looked up)
chain: MCSTSGCDLEEIPLDDDDLNTIEFKILAYYTRHHVFKSTPALFSPKLLRTRSLSQRGLGNCSANESWTEVSWPCRNSQSSEKAINLGKKKSSWKAFFGVVEKEDSQSTPAKVSAQGQRTLEYQDSHSQQWSRCLSNVEQCLEHEAVDPKVISIANRVAEIVYSWPPPQATQAGGFKSKEIFVTEGLSFQLQGHVPVASSSKKDEEEQILAKIVELLKYSGDQLERKLKKDKALMGHFQDGLSYSVFKTITDQVLMGVDPRGESEVKAQGFKAALVIDVTAKLTAIDNHPMNRVLGFGTKYLKENFSPWIQQHGGWEKILGISHEEVD
notes: source: E. coli BL21 codon-plus RIL, purified (Glutathione Sepharose 4B), GST removed with PreScission protease
  binding result: binds
